In PMC2972214 (2010):

Legend:
Test in all cases: SPR
[1] = target: recombinant α-enolase of Streptococcus salivarius SV17 (IPM FYENG—VY) (Streptococcus salivarius, UniProt J7THK5 1-434)
[2] = target: recombinant α-enolase of Streptococcus oralis SV11 (IPM …) (Streptococcus oralis, UniProt A0A1X1IR15 1-434)
[3] = target: recombinant α-enolase of Streptococcus salivarius SV41 (IPM …) (Streptococcus salivarius, UniProt J7THK5 1-434)
[4] = target: recombinant α-enolase of oral streptococcal strain SV90

B1: human plasminogen (natural protein)
chain: EPLDDYVNTQGASLFSVTKKQLGAGSIEECAAKCEEDEEFTCRAFQYHSKEQQCVIMAENRKSSIIIRMRDVVLFEKKVYLSECKTGNGKNYRGTMSKTKNGITCQKWSSTSPHRPRFSPATHPSEGLEENYCRNPDNDPQGPWCYTTDPEKRYDYCDILECEEECMHCSGENYDGKISKTMSGLECQAWDSQSPHAHGYIPSKFPNKNLKKNYCRNPDRELRPWCFTTDPNKRWELCDIPRCTTPPPSSGPTYQCLKGTGENYRGNVAVTVSGHTCQHWSAQTPHTHNRTPENFPCKNLDENYCRNPDGKRAPWCHTTNSQVRWEYCKIPSCDSSPVSTEQLAPTAPPELTPVVQDCYHGDGQSYRGTSSTTTTGKKCQSWSSMTPHRHQKTPENYPNAGLTMNYCRNPDADKGPWCFTTDPSVRWEYCNLKKCSGTEASVVAPPPVVLLPDVETPSEEDCMFGNGKGYRGKRATTVTGTPCQDWAAQEPHRHSIFTPETNPRAGLEKNYCRNPDGDVGGPWCYTTNPRKLYDYCDVPQCAAPSFDCGKPQVEPKKCPGRVVGGCVAHPHSWPWQVSLRTRFGMHFCGGTLISPEWVLTAAHCLEKSPRPSSYKVILGAHQEVNLEPHVQEIEVSRLFLEPTRKDIALLKLSSPAVITDKVIPACLPSPNYVVADRTECFITGWGETQGTFGAGLLKEAQLPVIENKVCNRYEFLNGRVQSTELCAGHLAGGTDSCQGDSGGPLVCFEKDKYILQGVTSWGLGCARPNKPGVYVRVSRFVTWIEGVMRNN
Kd [1]: 500 nM
Kd [2]: 1600 nM
Kd [3]: 300 nM
Kd [4]: 300 nM
